In this data set the test system is RBC ghost membrane 105 kDa protein (unidentified; disulfide-linked dimer, ~210 kDa non-reduced) (Homo sapiens). The data set can be described thus: filter. As to conditions: Scatchard on RBC ghosts, 1600 sites per cell; target assigned to 105 kDa protein by crosslinking.

Regarding AACTCAGTGGTAGGTAACGGTT [c56t], the equilibrium dissociation constant (Kd) stood at 4 nM.

Broadly, the Kd is the equilibrium constant for the complex coming apart. A high value points to a looser complex.

(Values after patent publication US20030027781.)
